Data: patent US11266616B2, “Compositions and methods for inhibiting kinase activity” (BRANDEIS UNIVERSITY, priority 2016, dated 2022)
“Also recorded” adds a separate entry of the source.

Tests used:
[1] = molecular target: T1, dephosphorylated Aurora A kinase (Homo sapiens, UniProt O14965); experiment: Isothermal titration calorimetry (ITC) binding to dephosphorylated Aurora A kinase; conditions: for change of binding affinity of monobody to dephosphorylated Aurora A kinase: Aurora A pre-saturated with danusertib, FIGS. 11A-11B; for binding affinity of monobody to dephosphorylated Aurora A kinase / binding affinity of sGFP-monobody fusion to Aurora A kinase compared with the monobody: ITC; for binding affinity of monobody to dephosphorylated Aurora A kinase: FIG. 8; for binding affinity of sGFP-monobody fusion to Aurora A kinase compared with the monobody: FIGS. 17B, 18D
T1 construct: Codon-optimized Aurora A^122-403 in pET28a and untagged λPP in T7-7 plasmid were co-transformed in BL21(DE3) cells; inferred from pET28a and the NiNTA column) (cleaved yes); made in house; host or cells: E. coli BL21(DE3), co-expressed with lambda protein phosphatase
T1 sequence (O14965 122-403): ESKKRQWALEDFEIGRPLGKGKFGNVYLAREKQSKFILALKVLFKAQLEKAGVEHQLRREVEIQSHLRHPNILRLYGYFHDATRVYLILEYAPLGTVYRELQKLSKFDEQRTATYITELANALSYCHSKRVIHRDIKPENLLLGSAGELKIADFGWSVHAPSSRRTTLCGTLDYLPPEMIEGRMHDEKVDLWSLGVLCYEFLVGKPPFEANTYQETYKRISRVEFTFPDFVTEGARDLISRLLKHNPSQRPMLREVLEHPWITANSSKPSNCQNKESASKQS
Description: Titrations were carried out using Nano ITC isothermal titration calorimeter (TA Instruments) and analyzed via the NanoAnalyze software using the independent fit model. Injectant was added in 1 μl volume, every 180 s, with a constant stirring speed at 350 rpm and at 25° C. Prior to ITC titration, both protein and TPX2 or monobody were dialyzed/resuspended in ITC buffer (20 mM TrisHCl, 200 mM NaCl, 3% (vol/vol) glycerol, 1 mM TCEP, pH 7.50).

Aurora A kinase = molecular target: T2, Aurora A kinase (Homo sapiens, UniProt O14965); experiment: In vitro kinase assay (HPLC-based / ATP/NADH-coupled) of peptide substrate phosphorylation; format: biochemical; conditions: for effect of monobody on Aurora A kinase activity: Lats2 peptide substrate, FIG. 9
T2 construct: Codon-optimized Aurora A^122-403 in pET28a and untagged λPP in T7-7 plasmid were co-transformed in BL21(DE3) cells; inferred from pET28a and the NiNTA column) (cleaved yes); made in house; host or cells: E. coli BL21(DE3)
T2 sequence (O14965 122-403): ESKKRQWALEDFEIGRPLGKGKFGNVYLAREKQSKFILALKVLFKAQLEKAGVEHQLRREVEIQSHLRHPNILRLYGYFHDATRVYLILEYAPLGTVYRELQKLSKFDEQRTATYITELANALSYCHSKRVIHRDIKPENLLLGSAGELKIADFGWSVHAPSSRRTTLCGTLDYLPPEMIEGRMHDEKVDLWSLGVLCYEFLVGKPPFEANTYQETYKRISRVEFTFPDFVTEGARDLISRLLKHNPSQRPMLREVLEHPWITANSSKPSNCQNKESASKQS
Description: Aurora A, either phosphorylated/dephosphorylated wild type or mutant protein, was mixed with either AP ([…]) (SEQ ID NO: 5), Kemptide (LRRASLG) (SEQ ID NO: 6), or Lats2 ([…]) (SEQ ID NO: 7), in the absence or presence of 50 μM TPX2 in kinase buffer (20 mM TrisHCl, 200 mM NaCl, 3% [vol/vol] glycerol, 20 mM MgCl2, 1 mM TCEP, pH 7.50). These substrates comprise the consensus sequence for Aurora A ([R/K/N]—R—X—[S/T]-B where B is any hydrophobic residue with the exception of Pro) (Ferrari et al., 2005, Biochem. J., 390(Pt 1):293-302; Ohashi et al., 2006, Oncogene, 25:7691-7702; Sardon et al., 2010, EMBO Reports, 11:977-984). Peptides were ordered through Genscript. For HPLC-based activity assays the following protocol was used. The reaction was initiated with the addition of 5 mM ATP. Then 5 μl time points were collected, resuspended in 10 μl 6% (vol/vol) trichloroacetic acid (in water) to quench the reaction, and neutralized with 50 μl 100 mM KH2PO4, pH 8.0 to provide the appropriate pH for nucleotide separation. The mixture was then passed through a 0.22 μm SpinX column to remove any protein precipitation. Reverse phase-high performance liquid chromatography (RP-HPLC) and an ACE 5 C18-AR, 100 Å pore size column, were used to separate nucleotides as well as peptides. For nucleotide runs, 2 μl of the aforementioned mixture was sufficient for analysis, whereas for the peptide runs the optimal injection volume was 20 μl. Nucleotide runs were routinely performed to ensure no unproductive hydrolysis was occurring during the experiment. An isocratic elution run in 100 mM KH2PO4, pH 6.0 was performed for this purpose. For the peptide runs, a gradient of 0-30% of elution buffer lasting 10 min at 0.4 mL/min was sufficient to separate phosphorylated from non-phosphorylated species. The running buffer was 0.1% TFA (vol/vol) in water, while the elution buffer was 100% acetonitrile. Lastly, to ensure full saturation of Aurora A by TPX2 and test these proteins were well behaved, a dose-dependence curve of the effect of TPX2 on Aurora A was obtained.
For ATP/NADH-coupled assay-based reaction, the following protocol was used. Phosphorylation of different concentrations of Lats2 peptide was monitored using the ATP/NADH coupled assay in a 96-well plate format. Reactions were carried in the presence of 1 μM dephosphorylated or 0.05 μM phosphorylated Aurora and 5 mM ATP in assay buffer (20 mM TrisHCl, 200 mM NaCl, 20 mM MgCl2, 10% (v/v) glycerol, 1 mM TCEP, pH 7.50) at 25° C.

[2] = system: Aurora A kinase in HEK293 cells; experiment: Immunofluorescence co-localization with Aurora A kinase in HEK293 cells; format: cell-based, human; conditions: 7 hours after delivery, FIG. 17F
From the text: (§1) FIGS. 17A-17F present a set of plots, images and graphs showing data gathered using cultured HEK293 cells. In FIGS. 17A-17F, alternative names of the monobodies described herein are used. […] The error bars represent the standard error for the estimate of Kd and are a measure of the goodness of fit of the data. […] As observed in FIG. 17D, sGFP-Mb60's optimal cell delivery occurs after 7 hrs of exposure. FIG. 17E presents a bar graph of luminescence (mean±SEM, n=4 measurements/dataset) as a measure of HEK293 viability after cells were treated for 7 hours under the conditions indicated below the x-axis. Asterisks indicate significance levels of between-conditions t-test comparisons of the different conditions with liposome-treated control; […]; **=p≤0.01; ***=p≤0.001. […] Cells were quadruple stained to visualize DNA/sGFP(−Mbs)/Aurora A kinase/TPX2. […] In the images, DNA stained blue; GFP stained green; Aurora A kinase stained red; and […].

HEK293 cells = experiment: HEK293 viability (luminescence) after 7 hours of treatment; format: cell-based, human; conditions: various monobody concentrations, FIG. 17E
From the text: as §1

B1: Mb60: monobody binding allosteric site of Aurora A kinase, SEQ ID NO: 4; inhibitor (protein, listed as Homo sapiens)
chain: GSVSSVPTKLEVVAATPTSLLISWDAPAVTVVHYVITYGETGGNSPVQEFTVPGSKSTATISGLKPGVDYTITVYAIDFYWGSYSPISINYRT
B1 was tested, and the “change of binding affinity of monobody to dephosphorylated Aurora A kinase” value [1] was “tightened”, the “binding affinity of monobody to dephosphorylated Aurora A kinase” value [1] was “low μM levels” and the “Activity of Monobody on Aurora A kinase” value (Aurora A kinase) was “inhibitor”. The “effect of monobody on Aurora A kinase activity” value (“effect of monobody” for short) (Aurora A kinase) was “inhibitor; also recorded: inhibited; also recorded: strong inhibition”.

B2: sGFP-Mb60: fusion polypeptide of supercharged GFP and inhibiting monobody Mb60 (aka Mb2) (protein)
chain: GSVSSVPTKLEVVAATPTSLLISWDAPAVTVVHYVITYGETGGNSPVQEFTVPGSKSTATISGLKPGVDYTITVYAIDFYWGSYSPISINYRT
modifications: left off: large carriers
For B2, the “binding affinity of sGFP-monobody fusion to Aurora A kinase compared with the monobody” value [1] was “comparable; also recorded: closely mimicked the binding”, the “co-localization with Aurora A kinase” value [2] was “strong co-localization” and the “inhibition of Aurora A kinase activity by sGFP fusion compared with the monobody” value (Aurora A kinase; FIG. 17C) was “same extent as Mb60”. The “cell death / viability of HEK293 cells” value (HEK293 cells) was “statistically significant cell death”.

B3: Mb44: monobody binding allosteric site of Aurora A kinase, SEQ ID NO: 1; inhibitor (protein, listed as Homo sapiens)
chain: GSVSSVPTKLEVVAATPTSLLISWDAPAVTVDFYVITYGETGGYSYPWQEFEVPGSKSTATISGLKPGVDYTITVYADYGQYFYSPISINYRT
B3 was tested, and the “binding affinity of monobody to dephosphorylated Aurora A kinase” value [1] was “low μM levels”, the “Activity of Monobody on Aurora A kinase” value (Aurora A kinase) was “inhibitor” and the “effect of monobody” value (Aurora A kinase) was “strongly inhibit”.

B4: Mb6: monobody binding allosteric site of Aurora A kinase, SEQ ID NO: 10; activity neutral (protein, listed as Homo sapiens)
chain: GSVSSVPTKLEVVAATPTSLLISWDAFGHQYEPVYYYRITYGETGGNSPVQEFTVPGYYSTATISGLKPGVDYTITVYAWYVDGSYSSPISINYRT
For B4, the “binding affinity of monobody to dephosphorylated Aurora A kinase” value [1] was “low nM affinity; also recorded: low nanomolar affinities”, the “Activity of Monobody on Aurora A kinase” value (Aurora A kinase) was “neutral” and the “effect of monobody” value (Aurora A kinase) was “weakest regulator; also recorded: did not significantly modulate; also recorded: neutral activity”.

B5: sGFP-Mb6: fusion polypeptide of supercharged GFP and activity-neutral monobody Mb6 (protein)
chain: GSVSSVPTKLEVVAATPTSLLISWDAFGHQYEPVYYYRITYGETGGNSPVQEFTVPGYYSTATISGLKPGVDYTITVYAWYVDGSYSSPISINYRT
modifications: left off: large carriers
For B5, the “co-localization with Aurora A kinase” value [2] was “strong co-localization” and the “cell death / viability of HEK293 cells” value (HEK293 cells) was “statistically significant cell death”.

B6: Mb51: monobody binding allosteric site of Aurora A kinase, SEQ ID NO: 2; inhibitor (protein, listed as Homo sapiens)
chain: GSVSSVPTKLEVVAATPTSLLISWDAKPMSYEPVYYYRITYGETGGNSPVQEFTVPGYYSTATISGLKPGVDYTITVYADSMSSYYYSPISINYRT
With B6 the “binding affinity of monobody to dephosphorylated Aurora A kinase” value [1] was “low nanomolar affinities”, the “Activity of Monobody on Aurora A kinase” value (Aurora A kinase) was “inhibitor” and the “effect of monobody” value (Aurora A kinase) was “strongly inhibit”.

B7: Mb54: monobody binding allosteric site (PIF pocket) of Aurora A kinase, SEQ ID NO: 11; activator (protein, listed as Homo sapiens)
chain: GSVSSVPTKLEVVAATPTSLLISWDAQTYQMYDYVSYYRITYGETGGNSPVQEFTVPGYYSTATISGLKPGVDYTITVYAEGYYSSYSPISINYRT
With B7 the “change of binding affinity of monobody to dephosphorylated Aurora A kinase” value [1] was “weakened”, the “binding affinity of monobody to dephosphorylated Aurora A kinase” value [1] was “low nanomolar affinities” and the “Activity of Monobody on Aurora A kinase” value (Aurora A kinase) was “activator”. The “effect of monobody” value (Aurora A kinase) was “strongest activator; also recorded: activate; also recorded: activation”.

B8: sGFP-Mb54: fusion polypeptide of supercharged GFP and activating monobody Mb54 (aka Mb1) (protein)
chain: GSVSSVPTKLEVVAATPTSLLISWDAQTYQMYDYVSYYRITYGETGGNSPVQEFTVPGYYSTATISGLKPGVDYTITVYAEGYYSSYSPISINYRT
modifications: left off: large carriers
With B8 the “binding affinity of sGFP-monobody fusion to Aurora A kinase compared with the monobody” value [1] was “closely mimicked the binding”, the “co-localization with Aurora A kinase” value [2] was “strong co-localization” and the “cell death / viability of HEK293 cells” value (HEK293 cells) was “did not cause cell death”.

B9: Mb56: monobody binding allosteric site of Aurora A kinase, SEQ ID NO: 3; inhibitor (protein, listed as Homo sapiens)
chain: GSVSSVPTKLEVVAATPTSLLISWDAMSDWYYWVDYYRITYGETGGNSPVQEFTVPGSYSTATISGLKPGVDYTITVYASDDVWGDYSPISINYRT
For B9, the “binding affinity of monobody to dephosphorylated Aurora A kinase” value [1] was “low nanomolar affinities”, the “Activity of Monobody on Aurora A kinase” value (Aurora A kinase) was “inhibitor” and the “effect of monobody” value (Aurora A kinase) was “strongly inhibit”.
